Among the data in patent publication US20230279406A1 are recombination upon caffeine induction, tandem against single CaffVHH split Cre 270/271 and gRNA induced mCherry knockdown efficiency, no CID domain values, retold here.

Common to all, as to assay: cell-based or functional assay
In assay [1] the target is CD176 PV1-tandem CaffVHH-L1-iCre-271C-NLS-BGHpA.
For assay [2], the target named is T1, CD376 PV1-RfxCas13d-566C-NLS-BGHpA.
T1 sequence: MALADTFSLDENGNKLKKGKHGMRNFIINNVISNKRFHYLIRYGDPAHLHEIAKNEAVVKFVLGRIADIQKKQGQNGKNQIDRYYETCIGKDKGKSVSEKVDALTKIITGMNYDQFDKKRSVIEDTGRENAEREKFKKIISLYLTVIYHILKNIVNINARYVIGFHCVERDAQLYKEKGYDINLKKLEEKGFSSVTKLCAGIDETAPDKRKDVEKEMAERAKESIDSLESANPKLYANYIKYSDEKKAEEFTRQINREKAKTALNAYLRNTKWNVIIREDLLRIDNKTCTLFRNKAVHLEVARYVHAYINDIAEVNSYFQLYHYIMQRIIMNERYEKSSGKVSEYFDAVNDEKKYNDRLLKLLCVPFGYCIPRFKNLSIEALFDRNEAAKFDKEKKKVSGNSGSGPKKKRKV

The target of assay [3] is T2, CD380 PV1-RfxCas13d-656C-NLS-BGHpA.
T2 sequence: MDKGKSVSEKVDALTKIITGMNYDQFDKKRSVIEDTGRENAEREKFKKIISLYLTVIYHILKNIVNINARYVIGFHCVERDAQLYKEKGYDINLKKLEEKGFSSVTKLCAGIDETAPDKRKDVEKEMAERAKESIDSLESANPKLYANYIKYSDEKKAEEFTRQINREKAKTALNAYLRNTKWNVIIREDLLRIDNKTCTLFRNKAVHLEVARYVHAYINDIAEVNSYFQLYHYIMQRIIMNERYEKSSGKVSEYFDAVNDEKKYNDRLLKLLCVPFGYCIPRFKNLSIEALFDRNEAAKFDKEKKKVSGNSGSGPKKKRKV

Sequence of CD176 PV1-tandem CaffVHH-L1-iCre-271C-NLS-BGHpA (chain, as listed by the source): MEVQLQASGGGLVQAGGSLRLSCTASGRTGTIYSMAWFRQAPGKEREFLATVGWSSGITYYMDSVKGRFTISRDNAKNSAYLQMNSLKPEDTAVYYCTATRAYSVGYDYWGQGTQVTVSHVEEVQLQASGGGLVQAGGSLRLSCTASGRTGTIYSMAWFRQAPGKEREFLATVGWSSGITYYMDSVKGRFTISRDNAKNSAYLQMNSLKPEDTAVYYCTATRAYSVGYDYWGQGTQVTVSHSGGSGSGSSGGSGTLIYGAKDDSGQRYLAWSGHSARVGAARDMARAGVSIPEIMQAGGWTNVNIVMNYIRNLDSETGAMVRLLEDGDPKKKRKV

B1: CD175 PV1-iCre-N270-L1-tandem CaffVHH-NLS-BGHpA (protein)
chain: MSNLLTVHQNLPALPVDATSDEVRKNLMDMFRDRQAFSEHTWKMLLSVCRSWAAWCKLNNRKWFPAEPEDVRDYLLYLQARGLAVKTIQQHLGQLNMLHRRSGLPRPSDSNAVSLVMRRIRKENVDAGERAKQALAFERTDFDQVRSLMENSDRCQDIRNLAFLGIAYNTLLRIAEIARIRVKDISRTDGGRMLIHIGRTKTLVSTAGVEKALSLGVTKLVERWISVSGVADDPNNYLFCRVRKNGVAAPSATSQLSTRALEGIFEATHRSGGSGSGSSGGSGTMEVQLQASGGGLVQAGGSLRLSCTASGRTGTIYSMAWFRQAPGKEREFLATVGWSSGITYYMDSVKGRFTISRDNAKNSAYLQMNSLKPEDTAVYYCTATRAYSVGYDYWGQGTQVTVSHVEEVQLQASGGGLVQAGGSLRLSCTASGRTGTIYSMAWFRQAPGKEREFLATVGWSSGITYYMDSVKGRFTISRDNAKNSAYLQMNSLKPEDTAVYYCTATRAYSVGYDYWGQGTQVTVSHPKKKRKV
In the case of B1, in assay [1], the recombination upon caffeine induction, tandem against single CaffVHH split Cre 270/271 is less than 13 fold.

B2: CD375 PV1-RfxCas13d-N565-NLS-BGHpA (protein)
chain: MIEKKKSFAKGMGVKSTLVSGSKVYMTTFAEGSDARLEKIVEGDSIRSVNEGEAFSAEMADKNAGYKIGNAKFSHPKGYAVVANNPLYTGPVQQDMLGLKETLEKRYFGESADGNDNICIQVIHNILDIEKILAEYITNAAYAVNNISGLDKDIIGFGKFSTVYTYDEFKDPEHHRAAFNNNDKLINAIKAQYDEFDNFLDNPRLGYFGQAFFSKEGRNYIINYGNECYDILALLSGLRHWVVHNNEEESRISRTWLYNLDKNLDNEYISTLNYLYDRITNELTNSFSKNSAANVNYIAETLGINPAEFAEQYFRFSIMKEQKNLGFNITKLREVMLDRKDMSEIRKNHKVFDSIRTKVYTMMDFVIYRYYIEEDAKVAAANKSLPDNEKSLSEKDIFVINLRGSFNDDQKDALYYDEANRIWRKLENIMHNIKEFRGNKTREYKKKDAPRLPRILPAGRDVSAFSKLMYALTMFLDGKEINDLLTTLINKFDNIQSFLKVMPLIGVNAKFVEEYAFFKDSAKIADELRLIKSFARMGEPIADARRAMYIDAIRILGTNLSYDELKPKKKRKV
In turn, B2 gave a gRNA induced mCherry knockdown efficiency, no CID domain in assay [2] of less than 80%.

B3: CD379 PV1-RfxCas13d-N655-NLS-BGHpA (protein)
chain: MIEKKKSFAKGMGVKSTLVSGSKVYMTTFAEGSDARLEKIVEGDSIRSVNEGEAFSAEMADKNAGYKIGNAKFSHPKGYAVVANNPLYTGPVQQDMLGLKETLEKRYFGESADGNDNICIQVIHNILDIEKILAEYITNAAYAVNNISGLDKDIIGFGKFSTVYTYDEFKDPEHHRAAFNNNDKLINAIKAQYDEFDNFLDNPRLGYFGQAFFSKEGRNYIINYGNECYDILALLSGLRHWVVHNNEEESRISRTWLYNLDKNLDNEYISTLNYLYDRITNELTNSFSKNSAANVNYIAETLGINPAEFAEQYFRFSIMKEQKNLGFNITKLREVMLDRKDMSEIRKNHKVFDSIRTKVYTMMDFVIYRYYIEEDAKVAAANKSLPDNEKSLSEKDIFVINLRGSFNDDQKDALYYDEANRIWRKLENIMHNIKEFRGNKTREYKKKDAPRLPRILPAGRDVSAFSKLMYALTMFLDGKEINDLLTTLINKFDNIQSFLKVMPLIGVNAKFVEEYAFFKDSAKIADELRLIKSFARMGEPIADARRAMYIDAIRILGTNLSYDELKALADTFSLDENGNKLKKGKHGMRNFIINNVISNKRFHYLIRYGDPAHLHEIAKNEAVVKFVLGRIADIQKKQGQNGKNQIDRYYETCIGKPKKKRKV
Molecule B3 had a gRNA induced mCherry knockdown efficiency, no CID domain in assay [3] of less than 80%.
